For one substance, stoichiometry N (receptors per NOE1 tetramer) results are on record in PMC12422955.

This assay deals with recombinant full-length NOE1–mScarlet-His (rat) (UniProt Q62609). Description: SEC; FSEC, Superose 6 calibrated with mass markers; 5 nM full-length NOE1–mScarlet with 5–150 nM GluA4, or 1 nM with 1–100 nM CP-AMPARs; mScarlet fluorescence.
Chain of recombinant full-length NOE1–mScarlet-His (rat) (Q62609 25-485): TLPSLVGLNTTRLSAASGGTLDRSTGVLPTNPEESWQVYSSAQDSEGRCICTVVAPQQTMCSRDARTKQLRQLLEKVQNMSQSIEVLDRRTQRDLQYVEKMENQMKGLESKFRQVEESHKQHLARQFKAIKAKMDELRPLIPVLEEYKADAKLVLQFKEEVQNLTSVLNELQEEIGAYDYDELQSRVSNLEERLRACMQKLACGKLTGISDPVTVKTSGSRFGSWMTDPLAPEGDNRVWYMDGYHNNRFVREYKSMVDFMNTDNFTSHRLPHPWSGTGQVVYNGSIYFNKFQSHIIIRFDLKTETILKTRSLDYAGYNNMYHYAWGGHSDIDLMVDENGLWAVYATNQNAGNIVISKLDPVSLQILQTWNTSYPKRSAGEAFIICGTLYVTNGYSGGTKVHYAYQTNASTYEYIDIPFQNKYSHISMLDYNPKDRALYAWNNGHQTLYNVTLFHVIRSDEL

As for “native GluA1-containing CP-AMPARs purified from rat cerebellum (from UniProt P19490 19-907; P19493 21-902) (complex)”, the stoichiometry N (receptors per NOE1 tetramer) is 2.
